Results on 1 substance are retold here after PMC11812572.

Assay [1] has as its target microtubules polymerised from porcine brain tubulin (GMPCPP-stabilised microtubules and seeds, and dynamic microtubules elongating or nucleated from Atto647N- or Atto647-tubulin) (porcine (endogenous in pig brain)) (UniProt P02550). The assay is described as follows: TIRF microscopy; microtubules elongating from surface-immobilized GMPCPP-seeds severed by laser ablation in 40 nM mScarlet-NuMA^FL and 10 µM Atto647N-tubulin; NuMA microscopy buffer, 30°C; new minus and plus ends scored.

For assay [2] the target is unchanged. The assay is described as follows: TIRF microscopy; γTuRC nucleation assay: biotinylated mBFP-γTuRC immobilized on the surface, 10 µM Atto647-tubulin and 5-30 nM mScarlet-NuMA^FL; γTuRC-nucleated and spontaneously (solution-) nucleated microtubules compared; γTuRC microscopy buffer, 33°C.

microtubules polymerised from porcine brain tubulin (GMPCPP-stabilised microtubules and seeds, and dynamic microtubules elongating or nucleated from Atto647N- or Atto647-tubulin) (porcine (endogenous in pig brain)), sequence (P02550 other isoform, or with tags, fused parts or gaps, chain 1 of 2): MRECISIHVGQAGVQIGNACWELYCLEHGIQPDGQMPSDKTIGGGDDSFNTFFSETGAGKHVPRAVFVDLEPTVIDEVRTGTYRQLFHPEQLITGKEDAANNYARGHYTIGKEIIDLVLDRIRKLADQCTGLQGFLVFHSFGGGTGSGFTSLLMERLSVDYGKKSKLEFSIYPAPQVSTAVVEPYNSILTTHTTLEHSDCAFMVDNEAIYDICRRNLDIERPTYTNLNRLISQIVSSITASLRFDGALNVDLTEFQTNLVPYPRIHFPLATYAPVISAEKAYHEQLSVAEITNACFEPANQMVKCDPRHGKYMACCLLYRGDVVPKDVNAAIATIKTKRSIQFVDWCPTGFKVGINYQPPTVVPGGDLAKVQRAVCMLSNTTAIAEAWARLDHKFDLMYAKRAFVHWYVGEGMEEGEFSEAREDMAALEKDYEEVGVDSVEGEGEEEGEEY
microtubules polymerised from porcine brain tubulin (GMPCPP-stabilised microtubules and seeds, and dynamic microtubules elongating or nucleated from Atto647N- or Atto647-tubulin) (porcine (endogenous in pig brain)), sequence (chain, as listed by the source, chain 2 of 2): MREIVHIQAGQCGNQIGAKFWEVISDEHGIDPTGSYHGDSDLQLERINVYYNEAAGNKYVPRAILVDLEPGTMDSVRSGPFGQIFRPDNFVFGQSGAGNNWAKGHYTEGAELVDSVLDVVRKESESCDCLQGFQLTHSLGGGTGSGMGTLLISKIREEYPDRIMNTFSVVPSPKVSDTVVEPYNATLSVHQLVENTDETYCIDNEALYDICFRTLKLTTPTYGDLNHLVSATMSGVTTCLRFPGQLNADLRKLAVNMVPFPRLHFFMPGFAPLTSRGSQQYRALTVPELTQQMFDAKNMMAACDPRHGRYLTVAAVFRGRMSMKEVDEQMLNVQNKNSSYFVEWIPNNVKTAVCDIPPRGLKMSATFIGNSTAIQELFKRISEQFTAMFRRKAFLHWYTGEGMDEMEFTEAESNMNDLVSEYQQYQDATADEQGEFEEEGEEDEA

With “mScarlet-tagged full-length human NuMA, mScarlet-NuMA^FL, Q14980-1 1-2115”, in assay [1], the percent of ablation-generated minus ends with NuMA bound was found to be 83%. The same substance came in with a percent of minus ends of spontaneously nucleated microtubules with strong NuMA accumulation (highest NuMA concentration) in assay [2] of 93%.
